PMC4157418

Biological target: Acinetobacter baumannii alanine racemase (Acinetobacter baumannii strain NCTC13302) (UniProt B0VNF6)
Assay: crystal structure; sitting drops, 100 mM MES pH 6.0, 200 mM CaCl2, 20% PEG 6000; space group P2(1), two monomers in the asymmetric unit; 1.9 Å; interface analysed with PISA

Acinetobacter baumannii alanine racemase (from UniProt B0VNF6 1-367) (enzyme)
stoichiometry N: 2
